Results: patent US20110045604A1 (UNIVERSITY OF CHICAGO, published 2011)

B1: SUMO-δ-catenin peptide fusion protein (peptide)
peptide: {yeast SUMO}-PASPDSWV-OH
modifications: not fully specified
notes: The methods say that SUMO-peptide fusion proteins were injected in SPR; also called C-terminus of δ-catenin; not shown: The yeast SUMO fusion partner N-terminal to the peptide, and any junction or tag residues
B2: SUMO-ARVCF peptide fusion protein (peptide)
chain: PQPVDSWV
notes: Analyte in SPR; also called wild-type ARVCF peptide; AVFCF peptide; not shown: yeast SUMO, fusion partner N-terminal to the peptide

Target: T1, Erbin PDZ (UniProt Q96RT1 1321-1410, limits assumed)
T1 construct: domain: PDZ; Isolated PDZ domain without FN3; Expressed in E. coli from a pHFT2 derivative; also called wild-type PDZ domain; parent PDZ
Assay: SPR (BIAcore 2000); PDZ immobilised on Ni-NTA chip, SUMO-peptide fusion as analyte
Procedure: Affinity Measurements. SPR measurements were performed in 20 mM HEPES/NaOH buffer (pH 7.4), 150 mM NaCl, and 0.005% Tween 20 at 25° C. on a BIAcore 2000 instrument. The affinity clamp or the linker mutant was immobilized on a Ni-NTA chip to the level of approximate 300 RU, and different concentrations of SUMO-peptide fusion protein were injected. The kinetic data were analyzed using the one-to-one binding model in BIAEvaluation (BIAcore).

T1 sequence (Q96RT1 1321-1410 limits assumed): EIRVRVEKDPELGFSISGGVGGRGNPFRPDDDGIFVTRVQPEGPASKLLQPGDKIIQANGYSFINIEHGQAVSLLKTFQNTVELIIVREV

| Binder | Kd [µM] |
| --- | --- |
| B1 | 6.3 |
| B2 | 2.2 |
